The record followed here is the supplement of paper PMC7877785.

± gives the uncertainty stated by the source.

A short description of the data set: self-splicing fitness, log relative to wild type (ln ratio); higher = more splicing; Tetrahymena group I intron in knt gene, E. coli kanamycin selection, DiMSum; sequences stand for … in CUCUCU…GGAGGGAAAAGUUAUCAGGCAUGCACCUGGUAGCUAGUCUUUAAACCAAUAGAUUGCAUCGGUUUAAAAGGCAAGACCGUCAAAUUGCGGGAAAGGGGUCAACAGCCGUUCAGUACCAAGUCUCAGGGGAAACUUUGAGAUGGCCUUGCAAAGGGUAUGGUAAUAAGCUGACGGACAUGGUCCUAACCACGCAGCCAAGUCCUAAGUCAACAGAUCUUCUGUUGAUAUGGAUGCAGUUCACAGACUAAAUGUCGGUCGGGGAAGAUGUAUUCUUCUCAUAAGAUAUAGUCGGACCUCUCCUUAAUGGGAGCUAGCGGAUGAAGUGAUGCAACACUGGAGCCGCUGGGAACUAAUUUGUAUGCGAAAGUAUAUUGAUUAGUUUUGGAGUACUCGUGGUCG
The gist of the method: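 Fitness was computed with DiMSum as the error-weighted combination of replicate fold changes, kanamycin versus none, each normalised to wild type. The library randomised all eight intron nucleotides of the P1ex region, with the intron placed in the knt kanamycin-resistance gene on pET-22b(+) in E. coli BL21(DE3). Six replicate transformations were grown overnight at 37°C or 30°C on LB agar with or without 25 μg/mL kanamycin, plus 100 μg/mL carbenicillin, 50 μM IPTG and 0.2% rhamnose. Pooled colonies were amplicon-sequenced on an Illumina HiSeq 2500.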

In the case of AUAUAGCAAUAUUACGCAUC, the “self-splicing fitness (ln)” value is -2.63 ± 0.22 (30 °C) and -1.15 ± 0.26 (37 °C).

As to AUAUAGCAAUAUUACGGCGA, the “self-splicing fitness (ln)” value is -0.84 ± 0.12 (30 °C) and -0.69 ± 0.13 (37 °C).

Regarding AUAUAGCAAUAUUACGGCUA, the “self-splicing fitness (ln)” value (30 °C) is -0.422 ± 0.1 and the “self-splicing fitness (ln)” value (37 °C) is -0.506 ± 0.12.

As for AUAUAGCAAUAUUACGGGGC, the “self-splicing fitness (ln)” value is -3.4 ± 0.43 (30 °C) and -2.48 ± 0.32 (37 °C).

For the sequence AUAUAGCAAUAUUACGGUGG, the “self-splicing fitness (ln)” value runs as follows: (30 °C) -3.4 ± 0.22; (37 °C) -2.44 ± 0.25.

Consider AUAUAGCAAUAUUACGUACA, for which the “self-splicing fitness (ln)” value is -1.07 ± 0.14 (30 °C) and -0.785 ± 0.16 (37 °C).

On to AUAUAGCAAUAUUACGUCAA, for which the “self-splicing fitness (ln)” value reads like this: (30 °C) -2.93 ± 0.25; (37 °C) -2.06 ± 0.2.

Turning to AUAUAGCAAUAUUACGUCAG, the “self-splicing fitness (ln)” value is, setting by setting: (30 °C) -3.76 ± 0.31; (37 °C) -1.62 ± 0.25.

AUAUAGCAAUAUUACGUCCC: the “self-splicing fitness (ln)” value reads like this: (30 °C) -1.01 ± 0.17; (37 °C) 0.139 ± 0.32.

AUAUAGCAAUAUUACGUCUU: the “self-splicing fitness (ln)” value is -0.0336 ± 0.1 (30 °C) and -0.378 ± 0.1 (37 °C).

With AUAUAGCAAUAUUACGUGCU, the “self-splicing fitness (ln)” value (30 °C) was -1.24 ± 0.092 and the “self-splicing fitness (ln)” value (37 °C) is -0.807 ± 0.13.

Consider AUAUAGCAAUAUUACGUGUC, for which the “self-splicing fitness (ln)” value was -4.06 ± 0.34 (30 °C) and -1.88 ± 0.32 (37 °C).

As to AUAUAGCAAUAUUACGUUGG, the “self-splicing fitness (ln)” value was -4.08 ± 0.42 (30 °C) and -2.04 ± 0.26 (37 °C).

Consider AUCAAGCAAUAUUACGAAGC, for which the “self-splicing fitness (ln)” value (30 °C) was -3.81 ± 0.43.

Take AUCAAGCAAUAUUACGAAUG: the “self-splicing fitness (ln)” value is -3.16 ± 0.13 (30 °C) and -0.57 ± 0.1 (37 °C).

As to AUCAAGCAAUAUUACGAGAU, the “self-splicing fitness (ln)” value was -2.81 ± 0.16 (30 °C) and -2.67 ± 0.21 (37 °C).

Regarding AUCAAGCAAUAUUACGAGGA, the “self-splicing fitness (ln)” value is -2.51 ± 0.19 (30 °C) and -2.65 ± 0.26 (37 °C).

For AUCAAGCAAUAUUACGAGGC, the “self-splicing fitness (ln)” value by setting is: (30 °C) -3.86 ± 0.21; (37 °C) -2.57 ± 0.2.

As to AUCAAGCAAUAUUACGAUGU, the “self-splicing fitness (ln)” value was -0.836 ± 0.083 (30 °C) and -0.217 ± 0.091 (37 °C).

For AUCAAGCAAUAUUACGAUUG, the “self-splicing fitness (ln)” value (30 °C) was -4.34 ± 0.3 and the “self-splicing fitness (ln)” value (37 °C) was -3.41 ± 0.3.

As for AUCAAGCAAUAUUACGCACU, the “self-splicing fitness (ln)” value runs as follows: (30 °C) -0.00274 ± 0.081; (37 °C) 0.0749 ± 0.097.

On to AUCAAGCAAUAUUACGCAGA, for which the “self-splicing fitness (ln)” value by setting is: (30 °C) -2.21 ± 0.18; (37 °C) -2.52 ± 0.23.

For the sequence AUCAAGCAAUAUUACGCAGU, the “self-splicing fitness (ln)” value runs as follows: (30 °C) -2.61 ± 0.14; (37 °C) -1.71 ± 0.15.

AUCAAGCAAUAUUACGCCCA: the “self-splicing fitness (ln)” value runs as follows: (30 °C) -0.266 ± 0.15; (37 °C) 0.0648 ± 0.2.

Consider AUCAAGCAAUAUUACGCCCU, for which the “self-splicing fitness (ln)” value runs as follows: (30 °C) 0.228 ± 0.14; (37 °C) 0.617 ± 0.18.

For AUCAAGCAAUAUUACGCCGG, the “self-splicing fitness (ln)” value (30 °C) is -1.22 ± 0.19 and the “self-splicing fitness (ln)” value (37 °C) came out at 0.522 ± 0.2.

Take AUCAAGCAAUAUUACGCGAA: the “self-splicing fitness (ln)” value (30 °C) was -0.924 ± 0.094 and the “self-splicing fitness (ln)” value (37 °C) is -1.22 ± 0.12.

As to AUCAAGCAAUAUUACGCGCG, the “self-splicing fitness (ln)” value (30 °C) is -1.01 ± 0.094 and the “self-splicing fitness (ln)” value (37 °C) was -0.0559 ± 0.13.

Take AUCAAGCAAUAUUACGCGGA: the “self-splicing fitness (ln)” value (30 °C) was -2.07 ± 0.1 and the “self-splicing fitness (ln)” value (37 °C) was -1.94 ± 0.088.

On to AUCAAGCAAUAUUACGCGGC, for which the “self-splicing fitness (ln)” value by setting is: (30 °C) -3.39 ± 0.33; (37 °C) -1.98 ± 0.29.

Turning to AUCAAGCAAUAUUACGCUUA, the “self-splicing fitness (ln)” value by setting is: (30 °C) -1.75 ± 0.1; (37 °C) -0.843 ± 0.1.

As for AUCAAGCAAUAUUACGGACG, the “self-splicing fitness (ln)” value (30 °C) was -0.832 ± 0.083 and the “self-splicing fitness (ln)” value (37 °C) was determined as 0.117 ± 0.11.

On to AUCAAGCAAUAUUACGGACU, for which the “self-splicing fitness (ln)” value is -0.672 ± 0.076 (30 °C) and 0.456 ± 0.096 (37 °C).

For AUCAAGCAAUAUUACGGAGU, the “self-splicing fitness (ln)” value runs as follows: (30 °C) -2.18 ± 0.095; (37 °C) -0.783 ± 0.11.

For AUCAAGCAAUAUUACGGCAG, the “self-splicing fitness (ln)” value was -1.58 ± 0.085 (30 °C) and -1.55 ± 0.12 (37 °C).

In the case of AUCAAGCAAUAUUACGGCCG, the “self-splicing fitness (ln)” value is -0.0854 ± 0.092 (30 °C) and -0.00151 ± 0.15 (37 °C).

As for AUCAAGCAAUAUUACGGCGU, the “self-splicing fitness (ln)” value reads like this: (30 °C) 0.235 ± 0.1; (37 °C) 0.219 ± 0.11.

AUCAAGCAAUAUUACGGGCG: the “self-splicing fitness (ln)” value (30 °C) is -1.34 ± 0.06 and the “self-splicing fitness (ln)” value (37 °C) is -0.467 ± 0.079.
